System: MS2 coat protein
Test: apparent KD of MS2 coat protein; designed switch direction (-1 OFF switch, 1 ON switch): -1; higher = weaker reporter binding
In short: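 An oligonucleotide input, 200 uM small-molecule ligand, or no input was present during titration of SNAP-549-labelled MS2 coat protein, which was doubled from 0.7 or 1.5 nM to 3 µM. Designed RNA switches had been transcribed on Illumina chips by stalled E. coli RNA polymerase. Apparent KD per design is the median over clusters of curves fitted to normalised cluster fluorescence.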

[1] = Eterna round: R95, input ligand: microRNA oligo, concentration not stated
[2] = input ligand: microRNA oligo, concentration not stated

AGCAUGUAAGGAUAUGUAACGCGGCUUUCAUUCGCCGUCCCACAGAAGGUACAUGAGGAUCACCCAUGUGCUCC [Solaisorin] (puzzle: Exclusion 4)
apparent KD of MS2 coat protein [1]: 33.3 nM

AGCGAAGAGACAGGAUAUGAGAAUAGAUAGAGCUCAGAAGGGUCACAUGAGGAUCACCCAUGUAAAGUCUUGAGGCUGCGUGGU [Prohibition 10 - Jieux - Exclusion NG 1] (Eterna round: R96, puzzle: Exclusion NG 1)
apparent KD of MS2 coat protein (input ligand: FMN 200 uM): 123 nM
apparent KD of MS2 coat protein [2]: 41.1 nM
apparent KD of MS2 coat protein (input ligand: none): 61.7 nM

AGCGACCAAGGAUAUACAUGAGGAUCACCCAUGUCGGCGACCUUCCUGGGAUUUCUUAGUAGAAGGUGGUCAAU [Gesodieddi] (puzzle: Exclusion 3)
apparent KD of MS2 coat protein [1]: 35.2 nM

AGCGCCAUCGUGAGAUGGCGUAUUACAUGAGGAUCACCCAUGUAGGAUAUCGAUUGCUUUGCAGUCGAGAAGGACAUGUUCUAG [JL ENG3 3.80 Mod A] (Eterna round: R96, puzzle: Exclusion NG 3)
apparent KD of MS2 coat protein (input ligand: FMN 200 uM): 95.5 nM
apparent KD of MS2 coat protein [2]: 35.9 nM
apparent KD of MS2 coat protein (input ligand: none): 60.6 nM

AGCGCCAUGCUCGUCUUACACAUGAGGAUCACCCAUGUUGGGUCUCAGAUGCGGUAAUAGCCCGUUGAAUCUAGUGG [Eternabot (L1) Solution 38] (Eterna round: R97, puzzle: Sensor, turn-off variant 1)
apparent KD of MS2 coat protein (input ligand: FMN 200 uM): 182 nM
apparent KD of MS2 coat protein (input ligand: none): 191 nM

AGCUAACGAACAGGAUAUCCAAAGCGAUAGCAGGGAGAAGGGUUCAGAACUUGAGGAUCACCCAAGUGGGCUGAGCUCGGGAAA [Mutated MS2 EX1.3] (Eterna round: R96, puzzle: Exclusion NG 1)
apparent KD of MS2 coat protein (input ligand: FMN 200 uM): 12 nM
apparent KD of MS2 coat protein [2]: 12.6 nM
apparent KD of MS2 coat protein (input ligand: none): 20.9 nM

AGCUAGAUAGGAUAUGCCCGGGAUAACAUGAGGAUCACCCAUGUGGCCGAAUCAAAUCCAGCAGAAGGGUUUGGGA [Mod of ViennaUCT 12 - Jieux - Exclusion 5] (Eterna round: R97, puzzle: Exclusion 5)
apparent KD of MS2 coat protein (input ligand: FMN 200 uM): 30.8 nM
apparent KD of MS2 coat protein (input ligand: none): 38.7 nM

AGCUAGUGAGGAUAUACAAGAAUAUAAACGAACAUAAAGGGACAUGAGGAUCACCCAUGUAGAAGGCACUAGCA [Diamond 73] (Eterna round: R96, puzzle: Exclusion 2)
apparent KD of MS2 coat protein [2]: 29.3 nM

AGCUAGUGCCGAGGAUAUACAUGAGGAUCACCCAUGUAGGCGUGAGGCUUUGUCUCACGCGAGAUGUAGAAGGCGGCGUUGGCA [JL ENG2 1.52] (Eterna round: R96, puzzle: Exclusion NG 2)
apparent KD of MS2 coat protein (input ligand: FMN 200 uM): 60.5 nM
apparent KD of MS2 coat protein [2]: 14.1 nM
apparent KD of MS2 coat protein (input ligand: none): 21.7 nM

AGCUGACGAGGAUAUACAUGAGGAUCACCCAUGUAAGAUCAGCGACGAUAGUCGCAAUGUAGAAGGCGUCAGCU [E3/10-A2] (Eterna round: R97, puzzle: Exclusion 3)
apparent KD of MS2 coat protein (input ligand: FMN 200 uM): 299 nM
apparent KD of MS2 coat protein (input ligand: none): 30.1 nM

AGCUGUGGCCAAGGAUAUCUAGCCUUAAAUACCGACGUAUAGUCGGACAUGAGGAUCACCCAUGUGGAGAAGGUGGUCUCAGCA [Eli eng2 - 044] (Eterna round: R96, puzzle: Exclusion NG 2)
apparent KD of MS2 coat protein (input ligand: FMN 200 uM): 82 nM
apparent KD of MS2 coat protein [2]: 53 nM
apparent KD of MS2 coat protein (input ligand: none): 74.3 nM

AGCUGUGGCCGAGGAUAUACACAUGAGGAUCACCCAUGUAGGCGCGGAUACGCGCUAAAAUAAGUGUAGAAGGCGGUCUCAGCA [Eli eng2 - 056] (Eterna round: R96, puzzle: Exclusion NG 2)
apparent KD of MS2 coat protein (input ligand: FMN 200 uM): 20.1 nM
apparent KD of MS2 coat protein [2]: 17.4 nM
apparent KD of MS2 coat protein (input ligand: none): 18.1 nM

AGCUGUGGCCGAGGAUAUCACGAACCAUGGAAAACCAUGGAACUCCUACAUGAGGAUCACCCAUGUGAGAAGGCGGUCUCAGCA [Eli eng2 - 020] (Eterna round: R96, puzzle: Exclusion NG 2)
apparent KD of MS2 coat protein (input ligand: FMN 200 uM): 109 nM
apparent KD of MS2 coat protein [2]: 33.4 nM
apparent KD of MS2 coat protein (input ligand: none): 52.1 nM

AGCUGUGGCCGAGGAUAUCUAACUUCAAAUACCGACGUAUAGUCGGACAUGAGGAUCACCCAUGUAGAGAAGGCGGUCUCAGCA [Eli eng2 - 037] (Eterna round: R96, puzzle: Exclusion NG 2)
apparent KD of MS2 coat protein [2]: 12.3 nM

Source: the supplement of paper PMC9170038
